Results taken from patent publication US12331110B2, “Monoclonal antibodies against endotrophin and the use thereof” (THE BOARD OF REGENTS OF THE UNIVERSITY OF TEXAS SYSTEM, priority 2018, dated 2025).
Positions count from the first letter of the chain named. Values belong to the molecule of their own block, whether it stands above or below them.

Tests used:
MDA-MB-231 cells = test: MDA-MB-231 tumor growth in nude mice; type: in vivo; settings: 2.5 mg/kg cisplatin
Procedure: FIGS. 6A-D. The antibody effects on MDA-MB-231 cells in vivo. (FIG. 6A) MDA-MB-231 cells (2×10^6 cells) were implanted into nude mice. Then 2.5 mg/kg of cisplatin and 20 mg/kg of ETPmAb4 antibody (twice a week) were injected after 10-days implantation for 5-weeks. Tumor volume was determined by caliper measurement. The insert reflects a simplified analysis of control antibody versus ETPmAb4 with associated statistics. (FIG. 6B) MDA-MB-231 cells (2×10^6 cells) were implanted into nude mice. Treatment was started when the tumor volume was over 30 mm^3. At that point, 2.5 mg/kg of cisplatin and 20 mg/kg of ETPmAb4 antibody (twice weekly) were injected for 5-weeks. Tumor volumes were determined by caliper measurements. The insert reflects a simplified analysis of control antibody versus ETPmAb4 with associated statistics. (FIG. 6C) SKOV3 cells (2×10^6 cells) were implanted into nude mice. Then 2.5 mg/kg of cisplatin and 20 mg/kg of ETPmAb4 antibody (twice weekly) were injected 10-days after implantation for 5-weeks. Tumor volumes were determined by caliper measurements. The insert reflects a simplified analysis of control antibody versus ETPmAb4 with associated statistics. (FIG. 6D) MDA-MB-231 cells (2×10^6 cells) were implanted into nude mice. Then 2.5 mg/kg of cisplatin, 20 mg/kg of ETPmAb4 antibody and 20 mg/kg of humanized ETPmAb4 antibody (twice a week) were injected after 10-days implantation for 5-weeks. Tumor volume was determined by caliper measurement. […]
(§1) Animal experiments. […] Tumors were measured twice a week, beginning 10 days after injection, and tumor volume was calculated by length×(width) 2/2 (mm^3).
(§2) Analysis of Tumor Progression. Tumor onset was monitored twice weekly by palpation. Tumor sizes were measured using a digital caliper twice weekly and the volumes were calculated as length× width2)/2. […] Animals were sacrificed when the tumor burden visibly affected the host, or when the tumors reached the IACUC pre-determined limit of 20 mm along one axis. […]
After humanization, the binding affinity of hETPmAb4 to endotrophin was measured in Octet RED96. […]

MCF7 cells = test: MCF7 tumor growth in nude mice; type: in vivo; settings: 2.5 mg/kg cisplatin once a week, estradiol pellet
Procedure: FIGS. 5A-C. Antibody effects on ETP-MCF7 cells in vivo. (FIG. 5A) ETP transfected MCF7 cells (2×10^6 cells) were implanted into nude mice. An estradiol pellet (0.72 mg) was implanted into nude mice. Then (i) 20 mg/kg ETPmAb4, (ii) 10 mg/kg ETPmAb4 with 10 mg/kg control IgG, (iii) 5 mg/kg ETPmAb4 with 15 mg/kg control IgG, (iv) 2 mg/kg ETPmAb4 with 18 mg/kg control IgG, and (v) 20 mg/kg control IgG (twice a week) were injected after 10-days implantation for 5-weeks. Tumor volume was determined by caliper measurement. Data was represented as mean±SD (n=5/group), and *** p<0.0001 by ANOVA followed by Newman-Keuls multiple comparison test. (FIG. 5B) Total RNA was prepared from tumor tissues from ETP transfected MCF7, ETPmAb4 treatment mice. The EMT markers genes Twist, Snail, Cdh2 and Cdh 1 were determined by qRT-PCR, then normalized to GAPDH. […] Tumor volume was determined by caliper measurement. […]
as §1, §2

[1] = tested on: ETP transfected MCF7 cells; test: ETP transfected MCF7 tumor growth in nude mice; type: in vivo; settings: 2.5 mg/kg cisplatin once a week
Procedure: FIGS. 5A-C. Antibody effects on ETP-MCF7 cells in vivo. (FIG. 5A) ETP transfected MCF7 cells (2×10^6 cells) were implanted into nude mice. An estradiol pellet (0.72 mg) was implanted into nude mice. Then (i) 20 mg/kg ETPmAb4, (ii) 10 mg/kg ETPmAb4 with 10 mg/kg control IgG, (iii) 5 mg/kg ETPmAb4 with 15 mg/kg control IgG, (iv) 2 mg/kg ETPmAb4 with 18 mg/kg control IgG, and (v) 20 mg/kg control IgG (twice a week) were injected after 10-days implantation for 5-weeks. Tumor volume was determined by caliper measurement. Data was represented as mean±SD (n=5/group), and *** p<0.0001 by ANOVA followed by Newman-Keuls multiple comparison test. (FIG. 5B) Total RNA was prepared from tumor tissues from ETP transfected MCF7, ETPmAb4 treatment mice. The EMT markers genes Twist, Snail, Cdh2 and Cdh 1 were determined by qRT-PCR, then normalized to GAPDH. E-CAD immunofluorescence staining for tumor tissues from ETP transfected MCF7 and ETPmAb4 treatment tumor. (FIG. 5C) MCF7 and ETP transfected MCF7 cells (2×10^6 cells) were implanted into nude mice. An estradiol pellet (0.72 mg) was implanted into nude mice. Then 20 mg/kg of antibody ETPmAb4 (twice a week), and 2.5 mg/kg of cisplatin (once a week) were injected after 10-days implantation for 6-weeks. Tumor volume was determined by caliper measurement. Data was represented as mean±SD (n=5/group), and *** p<0.0001 by ANOVA followed by Newman-Keuls multiple comparison test.
Animal experiments. NU/NU nude female mice were purchased from Charles River (Crl: NU-Foxnlnu; Strain Code 088 (Homozygous)). Breast cancer cells (2×10^6 cells) were implanted by intraductal injection. All cell lines were mixed on ice with 1×PBS and Matrigel. Then 100 μL of mixture was injected into mice. Tumors were measured twice a week, beginning 10 days after injection, and tumor volume was calculated by length×(width) 2/2 (mm^3).
Analysis of Tumor Progression. Tumor onset was monitored twice weekly by palpation. Tumor sizes were measured using a digital caliper twice weekly and the volumes were calculated as length× width2)/2. Inguinal tumors were weighted to determine tumor burden. Animals were sacrificed when the tumor burden visibly affected the host, or when the tumors reached the IACUC pre-determined limit of 20 mm along one axis.
As a next step, whether the anti-endotrophin antibodies effectively curb the aggressive tumor growth observed in endotrophin overexpressing MCF-7 cells was examined. To boost the growth rate of the tumor cells, these assays were performed in the presence of estradiol pellets. Cells (2×10^6 cells) were injected into nude mice and their tumor growth was monitored over time, based on a twice weekly injection of either a control monoclonal preparation, or ETPmAb4; in all cases, a total of 20 mg/kg of antibody was used. The dose dependence was tested by either injecting 20 mg/kg of control antibody, 20 mg/kg of ETPmAb4, or a mixture of the two with decreasing levels of control antibody mixed with increasing levels of ETPmAb4.
To test this, MCF7 cells were used with or without endotrophin overexpression, and the cells were transplanted into nude mice, in the presence of estradiol pellets (FIG. 5C). […] As expected, MCF7 cells harboring an excess in endotrophin grew very aggressively (FIG. 5C; red line).

[2] = target: T1, recombinant endotrophin protein (Homo sapiens, UniProt P12111); test: Affinity measurement with BLI (Octet RED96); settings: Octet (96-Red), 1:1 binding model
T1 construct: the latter consisting of 77 amino acids at the carboxy-terminal of the COL6α3 chain; CD33 signal peptide (N, cleaved yes); His-tag with EK-cleavage site (N, cleaved yes); purchased Sino Biological, Beijing, China; host or cells: HEK293
T1 sequence (P12111 3101-3177): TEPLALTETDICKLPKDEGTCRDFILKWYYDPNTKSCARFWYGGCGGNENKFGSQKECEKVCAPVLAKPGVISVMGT
Procedure: FIGS. 12A-B. Kinetic sensorgrams for ETP-mAb4 (FIG. 12A) and each of the humanized antibodies (FIG. 12B). […]
For antibody affinity measurement, antibody (30 μg/mL) was loaded onto the protein A biosensors for 4 min. Following a short baseline in kinetics buffer, the loaded biosensors were exposed to a series of recombinant endotrophin protein at 0.1-200 nM and background subtraction was used to correct for sensor drifting. All experiments were performed with shaking at 1,000 rpm. Background wavelength shifts were measured from reference biosensors that were loaded only with antibody. Kinetic sensorgrams for each antibody are shown in FIGS. 12A&B. ForteBio's data analysis software was used to fit the data to a 1:1 binding model to extract an association rate and dissociation rate. The Kd was calculated using the ratio of koff/kon and the estimated values of […] for endotrophin ETP-mAb4 and 4 humanized ETP-hMab4 antibodies are listed in Table 4.

Molecule: N.N.[Cl][Pt][Cl] [cisplatinum, cisplatin, reference compound]
- lesion growth, cisplatinum alone or with control antibodies (MDA-MB-231 cells): reduced
- lesion growth, cisplatinum (MCF7 cells): significantly curbed lesion growth
- lesion growth, cisplatinum alone or with control antibody [1]: moderately reduced

- kdis [2]: 3.28 E−04 1/s
- kon [2]: 1.30 E+05 1/Ms
B1: ETP-mAb4.4: humanized IgG1 version of ETPmAb4; VH SEQ ID NO: 161, VL SEQ ID NO: 158 (antibody, V domains shown)
VH: EVQLLESGGGLVQPGGSLRLSCAASGFSFSSGYYICWVRQAPGKGLEWIACIYGGNNNPYYANWVNGRFTTSRDNSKNTLYLQMNSLRAEDTAVYYCARKDINIGGAYELWGQGTLVTVSS
VL: DIQMTQSPSSLSASVGDRVTITCQASQSISSSYLSWYQQKPGKAPKLLIYKASTLASGVPSRFSGSGSGTDFTLTISSLQPEDFATYYCQYSDWANSYGNAFGGGTKVEIK
modifications: human IgG1 constant regions

- kdis [2]: 3.05 E−04 1/s
- kon [2]: 1.23 E+05 1/Ms
B2: ETP-mAb4.2: humanized IgG1 version of ETPmAb4; VH SEQ ID NO: 159, VL SEQ ID NO: 158 (antibody, V domains shown)
VH: B1 VH with N57S, T71I
VL: B1 VL
modifications: human IgG1 constant regions

- kdis [2]: 2.35 E−04 1/s
- kon [2]: 1.16 E+05 1/Ms
B3: ETP-mAb4.1: humanized IgG1 version of ETPmAb4; VH SEQ ID NO: 157, VL SEQ ID NO: 158 (antibody, V domains shown)
VH: B1 VH with T71I
VL: B1 VL
modifications: human IgG1 constant regions

- kdis [2]: 2.23 E−04 1/s
- kon [2]: 1.16 E+05 1/Ms
B4: ETP-mAb4.5: humanized IgG1 version of ETPmAb4; VH SEQ ID NO: 162, VL SEQ ID NO: 158 (antibody, V domains shown)
VH: B1 VH with S28T, N57S, T71I
VL: B1 VL
modifications: human IgG1 constant regions
